Results: the supplement of paper PMC10126150
± gives the standard deviation of the averaged measurements.

System: ATP
Test: switch fluorescence ratio, 500 uM ATP over buffer (Cy3 cluster intensity, sum of 5 cycles each) (fold (ratio)); higher = stronger signal-on switching upon ATP binding; sequences stand for … in TCGTCGGCAGCGTCAGATGTGTATAAGAGACAGTTTTTTTTTTTTTTTTTTTTTTTTT…TC
Conditions: aptamer strand: ATP DNA aptamer (quencher-CACCTGGGGGAGTATTGCGGAGGAAGG + anchor), 100 nM annealed; ATP concentration: 500 uM
How it was run: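 The fluorescence ratio divides summed target-cycle Cy3 intensity by summed buffer-cycle Cy3 intensity for each cluster and is averaged per switch-domain sequence. Cy3-labelled switching-strand clusters on a modified Illumina MiSeq flow-cell were annealed to 100 nM quencher-labelled ATP aptamer, then imaged in selection buffer and again after 15 min with 500 uM ATP at 22 °C. Five such cycles were run, with NaOH stripping and re-annealing between them, and clusters outside 100-1000 RFU were excluded.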
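Note: ATP exposure 15 min at 22 °C before imaging.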

Sequence | switch fluorescence ratio
TTTTGATCGG | 0.982 ± 0.037
CATGTAGAGG | 0.976 ± 0.033
GATAACCTTT | 1.073 ± 0.0078
AATTTAGGCC | 1.023 ± 0.0087
TTTGCCGCGG | 0.995 ± 0.023
GTAATACCAA | 1.03 ± 0.058
AGAGGGTAGT | 1.01 ± 0.022
TAGTTTTAT | 0.973 ± 0.016
TAATGGGTCC | 0.99 ± 0.019
CAATCAACCG | 1.064 ± 0.0015
ATAGGAGTGC | 1.01 ± 0.023
GGTTTGTTAT | 1 ± 0.014
TGTTAGAATC | 0.963 ± 0.012
GGAGAAATCG | 1.06 ± 0.012
AGGCTTGATG | 0.972 ± 0.033
TCCGGGCCTT | 1.02 ± 0.09
CCTTTTGGGG | 1.03 ± 0.061
TTGAAAGTAT | 1.03 ± 0.048
GTCACGTATT | 1.16 ± 0.0099
TTAAATAATA | 1.09 ± 0.16
CTGGGGAGGT | 0.9946 ± 0.0044
GGTATTATGG | 1 ± 0.029
TATTATTTTT | 0.998 ± 0.026

Sequence | switch fluorescence ratio
GATGAAGCGA | 1.19 ± 0.02
GTTTGTCCGA | 1.01 ± 0.012
TGCTTCCCTC | 1.1 ± 0.018
TAATTGTAAT | 1.04 ± 0.014
CATAGTGCTT | 0.9715 ± 0.0043
GAGTCTGTGC | 1.02 ± 0.043
GGTATTTTAA | 1.04 ± 0.027
ACTTTATTAG | 1.0103 ± 0.00038
TTGGGTACGA | 0.997 ± 0.0043
ATTTATTCCG | 1.01 ± 0.032
CGCGTTGGCA | 1.04 ± 0.028
ATATTTGACA | 1.01 ± 0.026
CTAGGGGGAT | 0.9962 ± 0.0043
AGCGTTGTG | 1.01 ± 0.044
GAAGGGCGCG | 1.029 ± 0.0034
ATAGAGTTTG | 0.976 ± 0.0014
ACGGGACGCA | 1.089 ± 0.0019
GGGCAAAAAA | 1.03 ± 0.073
AGTAGAGCCT | 1.061 ± 0.0069
CAGATGTTTT | 0.987 ± 0.052
TGAGTCTGCT | 0.998 ± 0.087
TGGGGCAAAT | 1.01 ± 0.034
TAGGCGTAGG | 0.9876 ± 0.0018

Sequence | switch fluorescence ratio
CAAATATTTT | 0.996 ± 0.017
CATTAGGTCT | 0.981 ± 0.038
TACTTTCGGT | 1 ± 0.013
AAAGTGTACG | 0.999 ± 0.03
ACAGTGGTCG | 1.06 ± 0.033
GTTTAATGGA | 1.01 ± 0.021
CGAAGGCGTG | 1 ± 0.018
CCGGAGAGGT | 2.28 ± 0.23
AATCTCATAA | 0.986 ± 0.034
GGGGTACGAG | 1.02 ± 0.033
CGTAGTAGAC | 2.61 ± 0.26
TGAGTGAGGT | 0.959 ± 0.016
GGGGTGGTCG | 0.986 ± 0.083
AGGTTTAGTC | 0.9945 ± 0.0026
AAGTATTTCG | 0.9995 ± 0.0062
AATGCACAGA | 1.05 ± 0.045
TTATTCCCGT | 0.985 ± 0.064
TACTGCAGAT | 1.002 ± 0.0025
TTAGCTAGTT | 0.987 ± 0.042
TGGGGTAGCG | 0.998 ± 0.043
GTTGCACTTT | 0.983 ± 0.052
AGATGTCTGG | 0.9897 ± 0.0063
TAAAGAACGT | 0.942 ± 0.015

Sequence | switch fluorescence ratio
CAGTGGTTGG | 1.01 ± 0.013
ACGTATTAAT | 1.12 ± 0.031
TTACGAGGGG | 0.994 ± 0.024
ATTGAAAAAC | 1.03 ± 0.022
TGCTAGCCTG | 0.9955 ± 0.004
AACTGTAAAT | 1.25 ± 0.2
TATGAGGGG | 0.999 ± 0.027
TAGGGGGTTA | 0.992 ± 0.046
CAGGTCAGGT | 1.01 ± 0.045
TGTGTTTACT | 0.991 ± 0.022
TTATTGTACT | 1.008 ± 0.0073
AGTATATGGG | 0.988 ± 0.023
GGCAACGCGC | 0.997 ± 0.031
TTGGTACTGT | 1.02 ± 0.014
TGCTTCAGGG | 1.03 ± 0.014
GGAATCATTT | 0.972 ± 0.015
GGATTGTTTA | 1 ± 0.014
CGATGCACGG | 1.106 ± 0.0049
TCAGGGGTAT | 1.03 ± 0.028
GTAGGCAAAT | 1.029 ± 0.003
ATGATGTTTG | 0.981 ± 0.039
GGGGTGAGCA | 0.976 ± 0.029
TAAAGTAGTC | 1.05 ± 0.044

Sequence | switch fluorescence ratio
AATCATGGGG | 0.993 ± 0.041
TGTGGCTAGG | 1.02 ± 0.029
GCTGGAGGGG | 0.985 ± 0.018
CGTGATAAGT | 1.02 ± 0.021
TAGATGAGCA | 0.965 ± 0.07
ATTTACGAT | 1.02 ± 0.049
TTGCAAGTTT | 0.9811 ± 0.00083
TTATCGTCGG | 0.978 ± 0.04
GCTCCAATCG | 1.13 ± 0.049
AGGTTCAACG | 1.01 ± 0.028
CGAGAACTGG | 1.09 ± 0.14
ATGCCCGTG | 0.985 ± 0.014
AGGAGTATTA | 0.983 ± 0.018
TACTCAGGTT | 2.25 ± 1.8
TCAAAGCGGA | 1.01 ± 0.046
TAGAGCAGGT | 1.03 ± 0.011
GATCGGTACG | 1 ± 0.011
CTGTATTTCT | 1.03 ± 0.021
GGCATTTGAC | 1.02 ± 0.006
ACCGGGCCGA | 1.04 ± 0.016
AATTTGGTAA | 0.999 ± 0.019
TTTTTGGCAA | 2.35 ± 2.2
CGTGCTAGAA | 1.0154 ± 0.001

Sequence | switch fluorescence ratio
GAGGTTGTTA | 0.993 ± 0.032
CCATAAAGGG | 1.07 ± 0.098
TAAATCGTTG | 0.9906 ± 0.005
CTTAACTTAG | 1.047 ± 0.0015
TACCGGGGAG | 1.021 ± 0.0045
GACCACTATC | 1.1 ± 0.02
GGTTAGAAAT | 0.98 ± 0.016
GGTACTTCGA | 0.9938 ± 0.0015
GGTTGTGACG | 1 ± 0.08
AGTGATATTA | 1.01 ± 0.022
TGCACGTTTT | 1.09 ± 0.07
CTTCGGTTCT | 1.02 ± 0.028
ATGCCTAGTG | 0.994 ± 0.013
AGTGTTTGG | 0.997 ± 0.02
AAAAGGAGTT | 0.998 ± 0.016
TCCTGTGAAC | 1.04 ± 0.046
GGGTAAGTAT | 0.958 ± 0.04
GGGTTTGAGC | 0.981 ± 0.033
TTTTGAGGTT | 0.983 ± 0.034
GCATGGTTTT | 0.975 ± 0.029
TGGGGCACCC | 0.985 ± 0.01
AATTTTTGCT | 0.966 ± 0.011
TCATGGGGTA | 0.9617 ± 0.004

Sequence | switch fluorescence ratio
ATGCAGAAAT | 1.41 ± 0.83
TATTTTAAGT | 0.993 ± 0.038
GCATGAGGAT | 1.01 ± 0.06
GAAAGCGGTG | 1.01 ± 0.015
TGGGATGGGT | 1.02 ± 0.092
TTCTGTTTCC | 1.12 ± 0.13
GGGGTTTGTT | 0.992 ± 0.034
TCAGATATAC | 1.581 ± 0.0082
ATTGAGTTGT | 0.947 ± 0.066
GAAAAAGCGG | 1.04 ± 0.015
TAGTTTTCGT | 0.9817 ± 0.0012
TGTGAGGGCG | 1.06 ± 0.015
TCTAATCCGG | 1.015 ± 0.0051
TTTTAAACAC | 1.07 ± 0.11
TCGCCCGAGC | 1.09 ± 0.11
GGAGCAGGGA | 0.963 ± 0.025
TGTGGCGACG | 0.957 ± 0.012
ATCCTTCTAA | 1.05 ± 0.018
ACTTCTTTGT | 1.1 ± 0.11
